Molecular target: T1, GST-UTP13^1–320 (human, UniProt Q12788 1-320)
T1 sequence: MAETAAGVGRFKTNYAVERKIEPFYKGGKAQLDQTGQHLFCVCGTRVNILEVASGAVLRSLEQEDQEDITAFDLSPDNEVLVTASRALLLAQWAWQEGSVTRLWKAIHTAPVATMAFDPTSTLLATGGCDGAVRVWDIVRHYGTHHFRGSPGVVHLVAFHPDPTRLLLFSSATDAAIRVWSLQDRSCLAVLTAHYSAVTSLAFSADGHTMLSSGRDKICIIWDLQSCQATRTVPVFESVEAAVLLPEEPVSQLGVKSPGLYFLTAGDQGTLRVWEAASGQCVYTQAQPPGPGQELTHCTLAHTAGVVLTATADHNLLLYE
Assay: pull-down

binding result: binds
B1: HIS-UTP3^1–319 (domain or fragment)
chain: MVGRSRRRGAAKWAAVRAKAGPTLTDENGDDLGLPPSPGDTSYYQDQVDDFHEARSRAALAKGWNEVQSGDEEDGEEEEEEVLALDMDDEDDEDGGNAGEEEEEENADDDGGSSVQSEAEASVDPSLSWGQRKKLYYDTDYGSKSRGRQSQQEAEEEEREEEEEAQIIQRRLAQALQEDDFGVAWVEAFAKPVPQVDEAETRVVKDLAKVSVKEKLKMLRKESPELLELIEDLKVKLTEVKDELEPLLELVEQGIIPPGKGSQYLRTKYNLYLNYCSNISFYLILKARRVPAHGHPVIERLVTYRNLINKLSVVDQKLS
